The nature of this data set: total protein half-life in vivo (active degradation + dilution); higher = more stable protein.
[1] abbreviates: E. coli NCM3722 delta-clpP delta-lon delta-hslV, growth: N-lim chemostat, doubling time 6 h.
[2] abbreviates: E. coli NCM3722 delta-clpP, growth: N-lim chemostat, doubling time 6 h.
Setting [3] is: E. coli NCM3722 delta-hslV, growth: N-lim chemostat, doubling time 6 h.
The mark [4] stands for this setting: E. coli NCM3722 delta-lon, growth: N-lim chemostat, doubling time 6 h.
Where [5] appears, read: E. coli NCM3722 delta-smpB, growth: N-lim chemostat, doubling time 6 h.
Setting [6] is: wild type E. coli NCM3722, growth: C-lim chemostat, doubling time 3 h.
Where [7] appears, read: wild type E. coli NCM3722, growth: C-lim chemostat, doubling time 6 h.
Where [8] appears, read: wild type E. coli NCM3722, growth: C-lim chemostat, doubling time 12 h.
Setting [9] is: wild type E. coli NCM3722, growth: N-lim chemostat, doubling time 6 h.
The mark [10] stands for this setting: wild type E. coli NCM3722, growth: N-lim chemostat, doubling time 12 h.
Setting [11] is: wild type E. coli NCM3722, growth: P-lim chemostat, doubling time 6 h.
Where [12] appears, read: wild type E. coli NCM3722, growth: P-lim chemostat, doubling time 12 h.

The values below come from the supplement of paper PMC11246515.

± gives the standard deviation of the averaged measurements.

With “MSRRLRRTKIVTTLGPATDRDNNLEKVIAAGANVVRMNFSHGSPEDHKMRADKVREIAAKLGRHVAILGDLQGPKIRVSTFKEGKVFLNIGDKFLLDANLGKGEGDKEKVGIDYKGLPADVVPGDILLLDDGRVQLKVLEVQGMKVFTEVTVGGPLSNNKGINKLGGGLSAEALTEKDKADIKTAALIGVDYLAVSFPRCGEDLNYARRLARDAGCDAKIVAKVERAEAVCSQDAMDDIILASDVVMVARGDLGVEIGDPELVGIQKALIRRARQLNRAVITATQMMESMITNPMPTRAEVMDVANAVLDGTDAVMLSAETAAGQYPSETVAAMARVCLGAEKIPSINVSKHRLDVQFDNVEEAIAMSAMYAANHLKGVTAIITMTESGRTALMTSRISSGLPIFAMSRHERTLNLTALYRGVTPVHFDSANDGVAAASEAVNLLRDKGYLMSGDLVIVTQGDVMSTVGSTNTTRILTVE”, the “total protein half-life in vivo” value was 5.558 ± 0.04 h under setting [1]; 5.39 ± 0.19 h under setting [2]; 5.15 ± 0.41 h under setting [3]; 5.61 ± 0.28 h under setting [4]; 5.32 ± 0.27 h under setting [5]; 3.02 ± 0.11 h under setting [6]. For the same sequence, the “total protein half-life in vivo” value was found to be 5.989 ± 0.05 h under setting [7]; 11.4 ± 0.78 h under setting [8]; 5.4882 ± 0.00083 h under setting [9]; 9.898 ± 0.052 h under setting [10]; 5.96 ± 0.26 h under setting [11]; 13.1 ± 0.68 h under setting [12].
Consider “MSKCSADETPVCCCMDVGTIMDNSDCTASYSRVFANRAEAEQTLAALTEKARSVESEPCKITPTFTEESDGVRLDIDFTFACEAEMLIFQLGLR [P0AD33]”, for which the “total protein half-life in vivo” value under setting [1] is 5.299 ± 0.023 h; the “total protein half-life in vivo” value under setting [3] was determined as 2.32 ± 0.13 h; the “total protein half-life in vivo” value under setting [4] amounted to 2.77 ± 0.89 h; the “total protein half-life in vivo” value under setting [5] came out at 2.37 ± 0.099 h; the “total protein half-life in vivo” value under setting [6] was 2.3 ± 0.11 h; the “total protein half-life in vivo” value under setting [7] came to 4.14 ± 0.23 h. The “total protein half-life in vivo” value is, setting by setting: under setting [8], 8.27 ± 4.1 h; under setting [9], 2.09 ± 0.35 h; under setting [10], 3.61 ± 0.46 h; under setting [11], 5.25 ± 0.11 h; under setting [12], 8.88 ± 0.45 h.
As to “MKIAFIGEAVSGFGGMETVIRDVITTFRQQHIQSEMFFFCRNDKMDKGWLEGIKYSCSFSNIRLGFLRRAKHIHALSKWLQEYQPDIVICIDVISCLFAAKARKKSGIDMPVFSWPHFSLDHKKHAEYITCADYHLAISSGIKQQMINRGVAESTINVIFNPVETKDSVIPAPEEGETATFIYVGRMKFEGQKRVKDLLDGLSQAKGNWKLHVLGDGSDFEKCQAYGRELNIDDRIVWYGWQQYPWELVQQDIEKVSALLLTSSFEGFPMTLLEALSWGIPCISADCVSGPADIIQPDVNGHLYQPGDIAGFVTLLNKYIAGEIHIEHEKIPASIDEFYQSKYYDRLHKVIISAISRRK”, the “total protein half-life in vivo” value stood at 5.73 ± 0.45 h under setting [1]; 6.05 ± 0.67 h under setting [4]; 5.9 ± 0.06 h under setting [5]; 2.96 ± 0.11 h under setting [6]; 10.9 ± 0.65 h under setting [8]; 6.03 ± 1.8 h under setting [9]. In addition, the “total protein half-life in vivo” value under setting [10] worked out at 12.1 ± 1.4 h, the “total protein half-life in vivo” value under setting [11] was 6.21 ± 0.58 h and the “total protein half-life in vivo” value under setting [12] is 11.8 ± 0.7 h.
For “MAKVSLEKDKIKFLLVEGVHQKALESLRAAGYTNIEFHKGALDDEQLKESIRDAHFIGLRSRTHLTEDVINAAEKLVAIGCFCIGTNQVDLDAAAKRGIPVFNAPFSNTRSVAELVIGELLLLLRGVPEANAKAHRGVWNKLAAGSFEARGKKLGIIGYGHIGTQLGILAESLGMYVYFYDIENKLPLGNATQVQHLSDLLNMSDVVSLHVPENPSTKNMMGAKEISLMKPGSLLINASRGTVVDIPALCDALASKHLAGAAIDVFPTEPATNSDPFTSPLCEFDNVLLTPHIGGSTQEAQENIGLEVAGKLIKYSDNGSTLSAVNFPEVSLPLHGGRRLMHIHENRPGVLTALNKIFAEQGVNIAAQYLQTSAQMGYVVIDIEADEDVAEKALQAMKAIPGTIRARLLY [P0A9T0]”, the “total protein half-life in vivo” value was 5.06 ± 0.26 h under setting [1]; 4.512 ± 0.0057 h under setting [2]; 3.75 ± 0.028 h under setting [3]; 4.11 ± 0.16 h under setting [4]; 4.09 ± 0.058 h under setting [5]; 3.09 ± 0.13 h under setting [6]. In addition, the “total protein half-life in vivo” value runs as follows: under setting [7], 5.65 ± 0.34 h; under setting [8], 11.5 ± 1.3 h; under setting [9], 3.94 ± 0.12 h; under setting [10], 5.84 ± 0.19 h; under setting [11], 6.02 ± 0.23 h; under setting [12], 11.8 ± 0.39 h.
With “MTAPLTLLIVEDETPLAEMHAEYIRHIPGFSQILLAGNLAQARMMIERFKPGLILLDNYLPDGRGINLLHELVQAHYPGDVVFTTAASDMETVSEAVRCGVFDYLIKPIAYERLGQTLTRFRQRKHMLESIDSASQKQIDEMFNAYARGEPKDELPTGIDPLTLNAVRKLFKEPGVQHTAETVAQALTISRTTARRYLEYCASRHLIIAEIVHGKVGRPQRIYHSG [P0AEF4]”, the “total protein half-life in vivo” value stood at 4.85 h under setting [1]; 3.389 ± 0.03 h under setting [2]; 3.43 h under setting [3]; 3.22 h under setting [5]; 2.24 h under setting [6]; 5.33 h under setting [7]. Moreover, the “total protein half-life in vivo” value is, setting by setting: under setting [8], 8.21 h; under setting [9], 3 ± 0.62 h; under setting [10], 5.34 ± 0.18 h; under setting [11], 3.33 ± 0.5 h; under setting [12], 7.63 ± 0.19 h.
Consider “MTTMLEVAKRAGVSKATVSRVLSGNGYVSQETKDRVFQAVEESGYRPNLLARNLSAKSTQTLGLVVTNTLYHGIYFSELLFHAARMAEEKGRQLLLADGKHSAEEERQAIQYLLDLRCDAIMIYPRFLSVDEIDDIIDAHSQPIMVLNRRLRKNSSHSVWCDHKQTSFNAVAELINAGHQEIAFLTGSMDSPTSIERLAGYKDALAQHGIALNEKLIANGKWTPASGAEGVEMLLERGAKFSALVASNDDMAIGAMKALHERGVAVPEQVSVIGFDDIAIAPYTVPALSSVKIPVTEMIQEIIGRLIFMLDGGDFSPPKTFSGKLIRRDSLIAPSR”, for which the “total protein half-life in vivo” value stood at 4.95 h under setting [2]; 3.46 ± 0.2 h under setting [3]; 4.26 ± 0.14 h under setting [4]; 3.44 ± 0.13 h under setting [5]; 3 ± 0.72 h under setting [6]; 4.91 ± 0.77 h under setting [7]. In addition, the “total protein half-life in vivo” value under setting [8] was 8.06 ± 0.59 h; the “total protein half-life in vivo” value under setting [9] came out at 3.59 h; the “total protein half-life in vivo” value under setting [10] came out at 5.73 ± 0.34 h; the “total protein half-life in vivo” value under setting [11] was 2.66 ± 0.17 h; the “total protein half-life in vivo” value under setting [12] worked out at 7.06 ± 0.59 h.
As for “MDHRLLEIIACPVCNGKLWYNQEKQELICKLDNLAFPLRDGIPVLLETEARVLTADESKS [P0AAZ7]”, the “total protein half-life in vivo” value runs as follows: under setting [1], over 8 h; under setting [2], 5.82 ± 0.15 h; under setting [4], 4.19 ± 0.043 h; under setting [5], 4.65 ± 1.2 h; under setting [6], 1.64 ± 0.1 h; under setting [7], 4.73 ± 0.12 h. The “total protein half-life in vivo” value is, setting by setting: under setting [8], 8.88 ± 1.5 h; under setting [9], 3.05 ± 0.11 h; under setting [10], 6.3 ± 0.69 h; under setting [11], 3.69 ± 0.26 h; under setting [12], 7.87 ± 0.7 h.
